From a protein production outcome set (Wang et al. 2014) come the findings set out here.
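Also: failed if final PepcDB status was selected cloned or expressed and not failed if soluble or beyond.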

The data set in a line: label from the status in PepcDB records.
With “MPVGGLLPLFSSPGGGGLGSGLGGGLGGGRKGSGPAAFRLTEKFVLLLVFSAFITLCFGAIFFLPDSSKLLSGVLFHSNPALQPPAEHKPGLGARAEDAAEGRVRHREEGAPGDPGAGLEDNLARIRENHERALREAKETLQKLPEEIQRDILLEKEKVAQDQLRDKDLFRGLPKVDFLPPVGVENREPADATIREKRAKIKEMMTHAWNNYKRYAWGLNELKPISKEGHSSSLFGNIKGATIVDALDTLFIMGMKTEFQEAKSWIKKYLDFNVNAEVSVFEVNIRFVGGLLSAYYLSGEEIFRKKAVELGVKLLPAFHTPSGIPWALLNMKSGIGRNWPWASGGSSILAEFGTLHLEFMHLSHLSGDPVFAEKVMKIRTVLNKLDKPEGLYPNYLNPSSGQWGQHHVSVGGLGDSFYEYLLKAWLMSDKTDLEAKKMYFDAVQAIETHLIRKSSGGLTYIAEWKGGLLEHKMGHLTCFAGGMFALGADGAPEARAQHYLELGAEIARTCHESYNRTYVKLGPEAFRFDGGVEAIATRQNEKYYILRPEVIETYMYMWRLTHDPKYRTWAWEAVEALESHCRVNGGYSGLRDVYIARESYDDVQQSFFLAETLKYLYLIFSDDDLLPLEHWIFNTEAHPFPILREQKKEIDGKEK”, the protein production entry is on record as “not failed”.

In the case of “MPVKKLKQFLDSHKIKYLSIAHSPAYTAQEIAASAHVSGKQLAKTVIIKMDGRLAMVVLPASDHITFMKLKEAIGTSDLELATESEFEGKFAECDVGAMPPFGNLYGLPVLVSTKLSAQDNILFNAGSHSELMQLSFGDFEKLVKPTLVTL”, the protein production entry is recorded as “not failed”.

With “MPVLLSRLASRTNPSLANRCAMDTWLRSAIDYISSWIEFQQTTIQQPGVIVAFAHRGEVVAEHAFGVANLDTGEKLTPRHRCRIASHSKSFTSAGIMKLREQRKLRLDDSVGQYVGGLHPRVAETTIAQLLSHSAGLTRDGADSGQFIDRRPYLNAEELLAELKLPTAIEPGTRFKYSNHGFGLLGLVIEAVTKEPYTAWIKREIIEPAGLRETEPDAPLPKGAAFARGHTRKVPLGERCVIPGDNPTHAMASATGFAATAADTARFFAQLAPNARKSVLSVASRREMTRHHWRIPQSFEAYYGLGIGAGKLDGWDWLGHGGHFQGYISRTCAIPACELAISIISNSIDGAAPFWMDGAMQILRTFKTRGAPDRRVRDWTGRWWTIWGATDLVPMGDRVLIANPQFNNPFMDAGEIEVTGRDTGRIAAAAGHSSHGEPVRRVRDARGKVSDIWLAGANVKPASVVAREIARQYPPRKRRPTP”, the protein production result is recorded as “failed”.

With “MPVTEISEKLSVSPQPSIEDIQSLRDQGFKTLINNRPDNEDASQPNTRAERQQAKQCDLSYAFIPVTADTITEADVRAFQRAVDESDGPVLAHCQTGKRALNLYLIGEVLDGSMSVDKVVEFGRSRGFDTSAAAAWLKQHAARRPQVKGFFDKRTWSVQYVISDPLTRKCAIVDPVLDFDEKSGATATINADAILDYIRDNGLTVEWILDTHPHADHFSAAHYLQEKTGARTAIGERVVDVQKLWKGIYNWPELATDGSQWDRLFAHGETFEVGSIDAKVLFSPGHTLASITYVIGDAAFVHDTLFMPDSGTARADFPGGDARVLWKSIQEILALPAETRIFTGHDYQPEGRAPRWESTVAEQKKSNPHLAGVNEQEFVALRTTRDKTLPMPKLILHALQVNIRGGRLPEPEANGKRYLKFPLDALQGAAWE”, the protein production result is recorded as “failed”.

Regarding “MPYDWKRTETRQELRLWPHNSLPPRGAAGFVLLVFALGLLPLIAVLGSPLLWGLLPFLLLAVAGLWLAIEANYRQRRILEVLTLDPERAHLVRHNPRGAVQEWDCNRYWARATLHAHGGPVPHYVTLQGCGREVEIGAFLSEDERIALYDDLREMLSK”, the protein production entry is “failed”.

Turning to “MPYITIEGGALTREQKSELIRKVTEVASEVMQIPMEFFLCTVKELPDENIGIGGRTIDLIKLEHHHHHH”, the protein production entry is given as “not failed”.

On to “MQAETNSAPLAAALYMIAAMSIIGVIDNYVIRLAESIGLWQFHFMRSLMMLPLVGLMSLMGLGGLFPRRKGWVLLRSLLLTVAMLFYFSALAFMPIAQALAGLFTSPIFVLLVTAFGLRQRIGPWRILAVLMGFAGILFVLQPDPGAFDATVLIPVAGGFFYALGAVVTRRHCAGESTAALLGAMVTALGLTGLGGLIWLALFPATPLPGPDGFVARGWVWPMAEAMPWVALQAVGSATAVFMLIRAYQLGEPSYVSVFEFSVMIFGPLFAWVVLGVGLGPWQMLGIGLIVLAGAIIALRSG”, for which the protein production result is “failed”.

As for “MQAIRSILVVIEPDQLEGLALKRAQLIAGVTQSHLHLLVCEKRRDHSAALNDLAQELREEGYSVSTNQAWKDSLHQTIIAEQQAEGCGLIIKQHFPDNPLKKAILTPDDWKLLRFAPCPVLMTKTARPWTGGKILAAVDVGNNDGEHRSLHAGIISHAYDIAGLAKATLHVISAHPSPMLSSADPTFQLSETIEARYREACRTFQAEYGFSDEQLHIEEGPADVLIPRTAQKLDAVVTVIGTVARTGLSGALIGNTAEVVLDTLESDVLVLKPDDIIAHLEELASKE”, the protein production entry was “not failed”.

Turning to “MQANRSQLHSPPGTGSSEDASTPQCVHTRLTGEGSCPHSGDVHIQINSIPKECAENASSRNIRSGVHSCAHGCVHSRLRGHSHSEARLTDDTAAESGDHGSSSFSEFRYLFKWLQKSLPYILILSVKLVMQHITGISLGIGLLTTFMYANKSIVNQVFLRLNFFKSYFGPFELLGSILDCWNYRLHSEILFHGLKMPYFIGAFFHHAF”, the protein production result is “failed”.

For “MQARDIMTTTVVSISPDVSVRHAVAMMLQNHVSGLPVVDDHGRVCGMVTEGDLLLRREVRYAPRPARAPELISEIDLERYIGSNGWCVADVMSQDVIVARPDSEVSDIAESLQVHRIKRLPIVEDERLVGIVSRRDILRVIAEAPTTILPRGDEAIRLAVRTRLRSDLGLTPQKVHVSVRNGQVTVDGQVESELKRRAIKVLVEGLGGIAGYKDGLLVSPAHIQD”, the protein production entry is reported as “failed”.

As for “MQAYVLHFIALVIMSLTGTTSGAFAQNGQSTEVSGPIEDRVPHRHQERPGERMPADYGTPRLLNLGAHTFPVSTSNQLAQQYMNQGLNLSYAFNHAEAGRAFREAARLDPALAMAYWGQALVLGPNINAPMEAKNEVSALELVRKAASLAAGVSDRERALIGALEKRYTGNSEDRKANDKAYANAMREVHRRFSGDQDIAMLFVESVMDTSPWGYWMRDDYPMEGTREIVAVTEGVLQGNPRHPGATHMYIHLMEPTNMPERAAQAADTLLTLMPDAGHLIHMPSHIYLRVGRYEDAIIANQRAIAADVRYLVRQHEHGFYAMAYFPHNIHFLGAAATADGQSELAIDSARKVASTIDDAVLKEMPMTGVFRVVPYWALTRFGKWDEMLQEPEPPSSNAFLKGGWHYARGLAFVAKRQLSEAEQELAALREIMKDDSLDGPLLSVNTARSVLRIGPAVLAGEIAAARGQFNSAIAHLEQAVRLEDSLAYTEPPEWQAPPRLTLGAILLEAGHPAEAETVYWEDLRRNRNNGWALYGLLQALRAQGKNERAALVEERFNKAWARADVKLGASRFGCVFSPMTMAGQSR”, the protein production entry is listed as “failed”.

As for “MQCRDHSTHLVSLPNSQGPAVPFTMRRPVRPPSVPMSRYRTAPLATTELPPGIPFIIGNELAERFSYYGMRAILVVFMTRYLVDAAGNPAPMQEGEAKGYFHLFVSLTYFTPFLGALLADGVLGKYRTIIALSLVYCLGHFALALDDTRTGLLLGQSLIALGAGGIKPCVSAHVGDQFGQSNRHLLSQIYGWFYLAINLGAFVSMLLIPWLLERHGASVAFAVPGLLMLIATLVFWAGRHRFVHIPPGGMRFIREAWSSEGRRGVGRLIGVFLFITMFWALFDQTGSSWVLQSQRMDRVLFGHAILPSQIQAANPLLIVLLTPFFHHLLYPALARLIPMTALNKIALGLSFTVLAFALAAWIQMRIDTGLKPSIGWQLLAYLLLTSAEVMVSITSLEFAYTQAPLTMKSFVMALYLGAVALGNLFTALVNFWIERSKTPWLDGAGYFWFFTGLMLATALGFFAYSRNYREELHLQTER”, the protein production result is listed as “failed”.

Consider “MQDFWHAASAQLESELTPQQFKTWIKPLTPLSFDEQACMLRIAAPNRFKLDWVKSQFSGRIQSLACDYWEMQVDVQFVLDPTAGQRQAAMQPALAPMPMQPLAAQTMQAQAVPREAPARPTMAPYRETPMATAAHAAADIDVPVMDAAEASTQSYRVPAPAAPAVMGGLSAPPAAPVDDTVHERSRLNPILTFDNLVTGKANQLARAAAVQVANNPGKSYNPLYLYGGVGLGKTHLIHAIGNFMLMENPRARIRYIHAEQYVSDVVKAYQRKAFDDFKRYYHSLDLLLIDDIQFFSGKNRTQEEFFYAFEALIANRAQVIITSDTYPKEITGIDDRLISRFDSGLTVAIEPPELEMRVAILMKKAQAENVTVPEEVAFFVAKHLRSNVRELEGALRKILAYSNFHGKEITIEVTREALKDLLTVQNRQISVENIQKTCADFYNIKVADMYSKKRPANIARPRQIAMYLAKELTQKSLPEIGELFGGRDHTTVLHAVRKIADERSKDAQLNHELHVLEQTLKG”, for which the protein production entry was “failed”.

Turning to “MQDLNDIALFAAVVKHNGFSAAARDLNVPKSKLSKHVARLEEQLGVRLLERSTRKLRMTEVGRIFYEHAQGLLDGVAAAEAEIAAVRAEPTGVVRLACPIGFTPMLADILPAFHRRYPGVRLLITASNRRIDLIEERIDVALRARDQLDTDSQLIVRKFGEVRQRLAASPTLLARLGEITTDNLSQMPTLSMNEQHPNDVWRLVHATGGAIEIAHRPVVGCSDFLILERAAIEGMGIALLPDHICERAFRTGALVPVLPEWTSGNVMVHLVFPSRHGLLPATRALIDFLAENLIKALERCREVDPRPAASFEI”, the protein production result is “failed”.

On to “MQDNSVNETKNIVEVGIDSSIEESYLAYSMSVIIGRALPDARDGLKPVHRRILYAMHELGLTSKVAYKKSARIVGDVIGKYHPHGDNAVYDALVRMAQDFSMRLELVDGQGNFGSIDGDNAAAMRYTEARMTKASEEILRDIDKDTIDFVPNYDDTLKEPDILPSRLPNLLVNGANGIAVGMATSIPPHRMDEIIDALVHVLENPNAGLDEILEFVKGPDFPTGGIIYGKAGIIEAYKTGRGRVKVRAKVHVEKTKNKEIIVLDEMPFQTNKAKLVEQISDLAREKQIEGISEVRDESDREGIRVVIELKRDAMSEIVLNHLYKLTTMETTFSIILLAIYNKEPKIFTLLELLHLFLNHRKTIIIRRTIFELEKAKARAHILEGYLIALDNIDEIVRLIKTSQSPEAAKNALMERFTLSEIQSKAILEMRLQRLTGLERDKIKEEYQNLLELIDDLNGILKSEDRLNGVVKTELLEVKEQFSSPRRTEIQESYENIDIEDLIANEPMVVSMSYKGYVKRVDLKAYEKQNRGGKGKLSGSTYEDDFIENFFVANTHDILLFITNKGQLYHLKVYKIPEASRIAMGKAIVNLISLAPDEKIMATLSTKDFSDERSLAFFTKNGVVKRTNLSEFESNRSCGIRAIVLDEGDELVSAKVVDKNAKHLLIASHLGIFIKFPLEEVREIGRTTRGVIGIKLNENDFVVGAVVISDDGNKLLSVSENGLGKQTLAEAYRGQSRGGKGVIGMKLTQKTGNLVGVISVDDENLDLMILTASAKMIRVSIKDIRETGRNASGVKLINTADKVMYVNSCPKEEEPENLETSSAQNLFE”, for which the protein production entry is given as “failed”.

“MQDRMLRRVFILAGIALLLWVLYLLKPVVIPFVGAFLIAYLFSPLVEKLSKIGLPRWLSISIVFIGIGVLLTWAMWYVVPLVWQQLMYARDSIPSGIHWVNATFLPWVSHTFNVERMEIDTDQISTVVMEYIQTNYSADSIQTMALRLAQSGLNFIQIGGTIVLIPIISFYFLLDWDRMLNSLRRLIPRPYEESTLRIVYECHSVLGAFVKGQFLVMLLLGIVYAVGLQLIGLEVGLIIGMVAGLASIIPYLGFAVGIIAAVIATVFQFGVDWMQLALVGVVFMIGQAVEGYILQPFLLGDKIGLSPVAVVFAVLAGAQLAGFLGMLIALPVAAVIVVLLRHLREAYEHTQMYAGTATVVSTGNGEHISIETENLDLDIEVKNPQDTDTSIDNDRK”: the protein production result is “failed”.
